The values that follow come from article PMC4291175 (Nature protocols, 2014).

In data set [1] the target is GluCl-EGFP (Caenorhabditis elegans glutamate-gated chloride channel, EGFP gene fusion) (Caenorhabditis elegans) (UniProt G5EBR3). The experiment in a line: SEC. (SEC sorts molecules by how far they enter the pores of the column.)
The data set “SEC” concerns the molecule itself. The experiment in a line: SEC.

Molecule “GluCl-EGFP (Caenorhabditis elegans glutamate-gated chloride channel, EGFP gene fusion) (from UniProt G5EBR3 21-461) (natural protein)” gave a stoichiometry N in data set [1] of 5.

B1: cASIC463 (chicken acid-sensing ion channel 1a truncated 64 residues from the carboxy terminus), N-terminal eGFP tagged (domain or fragment, Gallus gallus, UniProt Q1XA76 1-463, looked up)
chain: MMDLKVDEEEVDSGQPVSIQAFASSSTLHGISHIFSYERLSLKRVVWALCFMGSLALLALVCTNRIQYYFLYPHVTKLDEVAATRLTFPAVTFCNLNEFRFSRVTKNDLYHAGELLALLNNRYEIPDTQTADEKQLEILQDKANFRNFKPKPFNMLEFYDRAGHDIREMLLSCFFRGEQCSPEDFKVVFTRYGKCYTFNAGQDGKPRLITMKGGTGNGLEIMLDIQQDEYLPVWGETDETSFEAGIKVQIHSQDEPPLIDQLGFGVAPGFQTFVSCQEQRLIYLPPPWGDCKATTGDSEFYDTYSITACRIDCETRYLVENCNCRMVHMPGDAPYCTPEQYKECADPALDFLVEKDNEYCVCEMPCNVTRYGKELSMVKIPSKASAKYLAKKYNKSEQYIGENILVLDIFFEALNYETIEQKKAYEVAGLLGDIGGQMGLFIGASILTVLELFDYAYEVIKHR
On to B1, for which, in “SEC”, the “stoichiometry N” value amounted to 3.

The stoichiometry N is the number of molecules, sites or subunits per partner or assembly.
